Reference: article PMC11446282

B1: IER2 S14: IER2, S14 to alanine (protein, UniProt Q9BTL4 1-223, looked up, variant S14A)
Immediate early response gene …: MEVQKEAQRIMTLAVWKMYHSRMQRGGLRLHRSLQLSLVMRSARELYLSAKVEALEPEVSLPAALPSDPRLHPPREAESTAETATPDGEHPFPEPMDTQEAPTAEETSACCAPRPAKVSRKRRSSSLSDGGDAGLVPSKKARLEEKEEEEGASSEVADRLQPPPAQAEGAFPNLARVLQRRFSGLLNCSPAAPPTAPPACEAKPACRPADSMLNVLVRAVVAF
B2: IER2 V15: IER2, V15 to alanine (protein, UniProt Q9BTL4 1-223, looked up, variant V15A)
Immediate early response gene …: MEVQKEAQRIMTLSAWKMYHSRMQRGGLRLHRSLQLSLVMRSARELYLSAKVEALEPEVSLPAALPSDPRLHPPREAESTAETATPDGEHPFPEPMDTQEAPTAEETSACCAPRPAKVSRKRRSSSLSDGGDAGLVPSKKARLEEKEEEEGASSEVADRLQPPPAQAEGAFPNLARVLQRRFSGLLNCSPAAPPTAPPACEAKPACRPADSMLNVLVRAVVAF
B3: IER2 W16: IER2, W16 to alanine (protein, UniProt Q9BTL4 1-223, looked up, variant W16A)
Immediate early response gene …: MEVQKEAQRIMTLSVAKMYHSRMQRGGLRLHRSLQLSLVMRSARELYLSAKVEALEPEVSLPAALPSDPRLHPPREAESTAETATPDGEHPFPEPMDTQEAPTAEETSACCAPRPAKVSRKRRSSSLSDGGDAGLVPSKKARLEEKEEEEGASSEVADRLQPPPAQAEGAFPNLARVLQRRFSGLLNCSPAAPPTAPPACEAKPACRPADSMLNVLVRAVVAF
B4: IER2 K17: IER2, K17 to alanine (protein)
chain: MEVQKEAQRIMTLSVWAMYHSRMQRGGLRLHRSLQLSLVMRSARELYLSAKVEALEPEVSLPAALPSDPRLHPPREAESTAETATPDGEHPFPEPMDTQEAPTAEETSACCAPRPAKVSRKRRSSSLSDGGDAGLVPSKKARLEEKEEEEGASSEVADRLQPPPAQAEGAFPNLARVLQRRFSGLLNCSPAAPPTAPPACEAKPACRPADSMLNVLVRAVVAF
B5: IER2 M23: IER2, M23 to alanine (protein, UniProt Q9BTL4 1-223, looked up, variant M23A)
Immediate early response gene …: MEVQKEAQRIMTLSVWKMYHSRAQRGGLRLHRSLQLSLVMRSARELYLSAKVEALEPEVSLPAALPSDPRLHPPREAESTAETATPDGEHPFPEPMDTQEAPTAEETSACCAPRPAKVSRKRRSSSLSDGGDAGLVPSKKARLEEKEEEEGASSEVADRLQPPPAQAEGAFPNLARVLQRRFSGLLNCSPAAPPTAPPACEAKPACRPADSMLNVLVRAVVAF
B6: PME1 M8: PME1, M8 to alanine (protein, UniProt Q9Y570 2-386, looked up, variant M8A)
Protein phosphatase …: SALEKSAHLGRLPSRPPLPGSGGSQSGAKMRMGPGRKRDFSPVPWSQYFESMEDVEVENETGKDTFRVYKSGSEGPVLLLLHGGGHSALSWAVFTAAIISRVQCRIVALDLRSHGETKVKNPEDLSAETMAKDVGNVVEAMYGDLPPPIMLIGHSMGGAIAVHTASSNLVPSLLGLCMIDVVEGTAMDALNSMQNFLRGRPKTFKSLENAIEWSVKSGQIRNLESARVSMVGQVKQCEGITSPEGSKSIVEGIIEEEEEDEEGSESISKRKKEDDMETKKDHPYTWRIELAKTEKYWDGWFRGLSNLFLSCPIPKLLLLAGVDRLDKDLTIGQMQGKFQMQVLPQCGHAVHEDAPDKVAEAVATFLIRHRFAEPIGGFQCVFPGC
B7: PME1 H9: PME1, H9 to alanine (protein, UniProt Q9Y570 2-386, looked up, variant H9A)
Protein phosphatase …: SALEKSMALGRLPSRPPLPGSGGSQSGAKMRMGPGRKRDFSPVPWSQYFESMEDVEVENETGKDTFRVYKSGSEGPVLLLLHGGGHSALSWAVFTAAIISRVQCRIVALDLRSHGETKVKNPEDLSAETMAKDVGNVVEAMYGDLPPPIMLIGHSMGGAIAVHTASSNLVPSLLGLCMIDVVEGTAMDALNSMQNFLRGRPKTFKSLENAIEWSVKSGQIRNLESARVSMVGQVKQCEGITSPEGSKSIVEGIIEEEEEDEEGSESISKRKKEDDMETKKDHPYTWRIELAKTEKYWDGWFRGLSNLFLSCPIPKLLLLAGVDRLDKDLTIGQMQGKFQMQVLPQCGHAVHEDAPDKVAEAVATFLIRHRFAEPIGGFQCVFPGC
B8: PME1 L10: PME1, L10 to alanine (protein, UniProt Q9Y570 2-386, looked up, variant L10A)
Protein phosphatase …: SALEKSMHAGRLPSRPPLPGSGGSQSGAKMRMGPGRKRDFSPVPWSQYFESMEDVEVENETGKDTFRVYKSGSEGPVLLLLHGGGHSALSWAVFTAAIISRVQCRIVALDLRSHGETKVKNPEDLSAETMAKDVGNVVEAMYGDLPPPIMLIGHSMGGAIAVHTASSNLVPSLLGLCMIDVVEGTAMDALNSMQNFLRGRPKTFKSLENAIEWSVKSGQIRNLESARVSMVGQVKQCEGITSPEGSKSIVEGIIEEEEEDEEGSESISKRKKEDDMETKKDHPYTWRIELAKTEKYWDGWFRGLSNLFLSCPIPKLLLLAGVDRLDKDLTIGQMQGKFQMQVLPQCGHAVHEDAPDKVAEAVATFLIRHRFAEPIGGFQCVFPGC
B9: PME1 G11: PME1, G11 to alanine (protein, UniProt Q9Y570 2-386, looked up, variant G11A)
Protein phosphatase …: SALEKSMHLARLPSRPPLPGSGGSQSGAKMRMGPGRKRDFSPVPWSQYFESMEDVEVENETGKDTFRVYKSGSEGPVLLLLHGGGHSALSWAVFTAAIISRVQCRIVALDLRSHGETKVKNPEDLSAETMAKDVGNVVEAMYGDLPPPIMLIGHSMGGAIAVHTASSNLVPSLLGLCMIDVVEGTAMDALNSMQNFLRGRPKTFKSLENAIEWSVKSGQIRNLESARVSMVGQVKQCEGITSPEGSKSIVEGIIEEEEEDEEGSESISKRKKEDDMETKKDHPYTWRIELAKTEKYWDGWFRGLSNLFLSCPIPKLLLLAGVDRLDKDLTIGQMQGKFQMQVLPQCGHAVHEDAPDKVAEAVATFLIRHRFAEPIGGFQCVFPGC
B10: PME1 R12: PME1, R12 to alanine (protein, UniProt Q9Y570 2-386, looked up, variant R12A)
Protein phosphatase …: SALEKSMHLGALPSRPPLPGSGGSQSGAKMRMGPGRKRDFSPVPWSQYFESMEDVEVENETGKDTFRVYKSGSEGPVLLLLHGGGHSALSWAVFTAAIISRVQCRIVALDLRSHGETKVKNPEDLSAETMAKDVGNVVEAMYGDLPPPIMLIGHSMGGAIAVHTASSNLVPSLLGLCMIDVVEGTAMDALNSMQNFLRGRPKTFKSLENAIEWSVKSGQIRNLESARVSMVGQVKQCEGITSPEGSKSIVEGIIEEEEEDEEGSESISKRKKEDDMETKKDHPYTWRIELAKTEKYWDGWFRGLSNLFLSCPIPKLLLLAGVDRLDKDLTIGQMQGKFQMQVLPQCGHAVHEDAPDKVAEAVATFLIRHRFAEPIGGFQCVFPGC
B11: PME1 L4: PME1, L4 to alanine (protein, UniProt Q9Y570 2-386, looked up, variant L4A)
Protein phosphatase …: SAAEKSMHLGRLPSRPPLPGSGGSQSGAKMRMGPGRKRDFSPVPWSQYFESMEDVEVENETGKDTFRVYKSGSEGPVLLLLHGGGHSALSWAVFTAAIISRVQCRIVALDLRSHGETKVKNPEDLSAETMAKDVGNVVEAMYGDLPPPIMLIGHSMGGAIAVHTASSNLVPSLLGLCMIDVVEGTAMDALNSMQNFLRGRPKTFKSLENAIEWSVKSGQIRNLESARVSMVGQVKQCEGITSPEGSKSIVEGIIEEEEEDEEGSESISKRKKEDDMETKKDHPYTWRIELAKTEKYWDGWFRGLSNLFLSCPIPKLLLLAGVDRLDKDLTIGQMQGKFQMQVLPQCGHAVHEDAPDKVAEAVATFLIRHRFAEPIGGFQCVFPGC
B12: PME1 E5: PME1, E5 to alanine (protein, UniProt Q9Y570 2-386, looked up, variant E5A)
Protein phosphatase …: SALAKSMHLGRLPSRPPLPGSGGSQSGAKMRMGPGRKRDFSPVPWSQYFESMEDVEVENETGKDTFRVYKSGSEGPVLLLLHGGGHSALSWAVFTAAIISRVQCRIVALDLRSHGETKVKNPEDLSAETMAKDVGNVVEAMYGDLPPPIMLIGHSMGGAIAVHTASSNLVPSLLGLCMIDVVEGTAMDALNSMQNFLRGRPKTFKSLENAIEWSVKSGQIRNLESARVSMVGQVKQCEGITSPEGSKSIVEGIIEEEEEDEEGSESISKRKKEDDMETKKDHPYTWRIELAKTEKYWDGWFRGLSNLFLSCPIPKLLLLAGVDRLDKDLTIGQMQGKFQMQVLPQCGHAVHEDAPDKVAEAVATFLIRHRFAEPIGGFQCVFPGC
B13: PME1 K6: PME1, K6 to alanine (protein, UniProt Q9Y570 2-386, looked up, variant K6A)
Protein phosphatase …: SALEASMHLGRLPSRPPLPGSGGSQSGAKMRMGPGRKRDFSPVPWSQYFESMEDVEVENETGKDTFRVYKSGSEGPVLLLLHGGGHSALSWAVFTAAIISRVQCRIVALDLRSHGETKVKNPEDLSAETMAKDVGNVVEAMYGDLPPPIMLIGHSMGGAIAVHTASSNLVPSLLGLCMIDVVEGTAMDALNSMQNFLRGRPKTFKSLENAIEWSVKSGQIRNLESARVSMVGQVKQCEGITSPEGSKSIVEGIIEEEEEDEEGSESISKRKKEDDMETKKDHPYTWRIELAKTEKYWDGWFRGLSNLFLSCPIPKLLLLAGVDRLDKDLTIGQMQGKFQMQVLPQCGHAVHEDAPDKVAEAVATFLIRHRFAEPIGGFQCVFPGC
B14: PME1 S7: PME1, S7 to alanine (protein, UniProt Q9Y570 2-386, looked up, variant S7A)
Protein phosphatase …: SALEKAMHLGRLPSRPPLPGSGGSQSGAKMRMGPGRKRDFSPVPWSQYFESMEDVEVENETGKDTFRVYKSGSEGPVLLLLHGGGHSALSWAVFTAAIISRVQCRIVALDLRSHGETKVKNPEDLSAETMAKDVGNVVEAMYGDLPPPIMLIGHSMGGAIAVHTASSNLVPSLLGLCMIDVVEGTAMDALNSMQNFLRGRPKTFKSLENAIEWSVKSGQIRNLESARVSMVGQVKQCEGITSPEGSKSIVEGIIEEEEEDEEGSESISKRKKEDDMETKKDHPYTWRIELAKTEKYWDGWFRGLSNLFLSCPIPKLLLLAGVDRLDKDLTIGQMQGKFQMQVLPQCGHAVHEDAPDKVAEAVATFLIRHRFAEPIGGFQCVFPGC

System: PP2A-B55α
Test: Single alanine mutational scan, YFP-tagged interactors immunoprecipitated from HeLa cells, Western blot
Format: binding, human
Details: single alanine mutant of YFP-tagged IER2
Experimental: Standard cloning techniques were used throughout. Point mutations were introduced by whole plasmid polymerase chain reaction (PCR). All constructs were fully sequenced. Synthetic DNA was purchased from GeneArt, Life Technologies and cloned into pcDNA5/FRT/TO (Invitrogen) expression vector containing YFP, resulting in the indicated YFP fusion proteins. These constructs were transiently transfected into HeLa cells 24 hours before harvesting cells. Cells were lysed in lysis buffer [50 mM tris-HCl (pH 7.5), 50 mM NaCl, 1 mM EDTA, 1 mM […], and 0.1% NP-40]. Complexes were immunoprecipitated at 4°C in lysis buffer with green fluorescent protein (GFP)–Trap (ChromoTek) and washed in lysis buffer. Precipitated protein complexes were washed three times in lysis buffer, eluted in 2× SDS sample buffer, and subjected to Western blotting or MS as indicated.

**Q.** B1 was tested. Which Experimental % binding did it give?
**A.** 83%

**Q.** B2 was tested. Which Experimental % binding did it give?
**A.** 91%

**Q.** With B3 as the molecule, how does the Experimental % binding read?
**A.** 100%

**Q.** Which Experimental % binding does the source give for B4 here?
**A.** 10%

**Q.** How did the Experimental % binding turn out when B5 was run?
**A.** 94%

Same assay, conditions: single alanine mutant of YFP-tagged PME1

**Q.** B6 was tested. Which Experimental % binding did it give?
**A.** 2%

**Q.** How did the Experimental % binding turn out when B7 was run?
**A.** 88%

**Q.** B8 was tested. Which Experimental % binding did it give?
**A.** 52%

**Q.** With B9 as the molecule, how does the Experimental % binding read?
**A.** 108%

**Q.** How did the Experimental % binding turn out when B10 was run?
**A.** 10%

**Q.** For B11, which Experimental % binding is on record?
**A.** 1%

**Q.** Which Experimental % binding does the source give for B12 here?
**A.** 108%

**Q.** Which Experimental % binding does the source give for B13 here?
**A.** 2%

**Q.** With B14 as the molecule, how does the Experimental % binding read?
**A.** 220%
